In patent US20230390371A1, “ANTI-TUMOR IMMUNITY INDUCES THE PRESENTATION OF ABERRANT PEPTIDES” (STICHTING HET NEDERLANDS KANKER INSTITUUT-ANTONI VAN …, priority 2020, published 2023):

Tested on: A375 cells expressing H2-Kb
Assay: H2-Kb-bound SIINFEKL presentation from V5-ATF4(1-63)-tGFP-SIINFEKL reporters
Format: cell-based, human
Conditions: IFNγ treatment
From the text: FIG. 4: Aberrant frameshifted peptides are detected in full proteomes, are presented on HLA class I molecules, and induce peptide-specific T cell response. • (a) Gene set enrichment analysis (GSEA) based depiction of the proteomics data showing the induction of the IFN response and HLA genes following IFN treatment of MD55A3 cells. (b) A volcano plot showing differentially identified proteins as detected by 2D LC-MS/MS on lysates of MD55A3 cells expressing the V5-ATF4(1-63)-tGFP +1 out-of-frame construct. The red arrowhead indicates a peptide identified in the full proteome that corresponds to tGFP that could only have arisen from a frameshifting event. (c) Same analysis as panel b, but for the tryptophan-associated aberrant peptides identified to be reproducibly present in either IFNγ-treated or control conditions. […] (d) Bar graph depicting the median fluorescence intensity (MFI) of H2-Kb-bound SIINFEKL peptides in A375 cells expressing H2-Kb in combination with in-frame (Frame) or +1 out-of-frame (+1) V5-ATF4(1-63)-tGFP-SIINFEKL reporters. […] The panel presents 12 frameshifted peptides detected in the immuno-peptidomics mass spectrometry data of IFNγ and tryptophan deprived (mTRP) samples, which were not detected in the untreated controls. A subset of these were also detected in the fresh tumor metastases (mets) samples of the same patient (MD55). […]

B1: IFNγ: interferon gamma (PeproTech), used at 250 U/mL (protein, UniProt P01579 24-161, looked up)
Interferon gamma: QDPYVKEAENLKKYFNAGHSDVADNGTLFLGILKNWKEESDRKIMQSQIVSFYFKLFKNFKDDQSIQKSVETIKEDMNVKFFNSNKKKRDDFEKLTNYSVTDLNVQRKAIHELIQVMAELSPAAKTGKRKRSQMLFRG
- presentation of +1 out-of-frame SIINFEKL peptide (+1 out-of-frame reporter, IDO1-dependent): strongly stimulated
- presentation of in-frame SIINFEKL peptide (in-frame reporter, IDO1-independent): mildly induced
